Data taken from patent US7067474B1, “Agents for treating human illnesses based on β-catenin, and the production and use thereof” (Max-Delbruck-Centrum fur Molekulare Medizin, priority 1998, dated 2006).

How the values were obtained:
Assay type in all cases: binding
Settings in all cases: yeast 2-hybrid, alanine mutants
LEF-1 = target: T1, LEF-1 (Mus musculus, UniProt P27782); assay: yeast 2-hybrid: interaction of β-catenin mutants with LEF-1
T1 construct: the cDNA of LEF-1 for the amino acids 1–99; expressed in transfected cells; host or cells: yeast (two-hybrid, Matchmaker, Clontech)
T1 sequence (P27782 1-99): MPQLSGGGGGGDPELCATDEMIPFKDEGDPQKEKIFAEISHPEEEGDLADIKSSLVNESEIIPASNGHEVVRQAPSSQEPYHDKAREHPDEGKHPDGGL
Method: (§1) The mutagenesis of β-catenin in the armadillo repeats 3–8 was carried out by means of the “mutagenesis kit” of the company Clontech according to the producer's record and the mutants were checked by sequencing (FIG. 5). In all mutants the original amino acid was substituted by alanine. For analyzing the interactions the cDNA of human β-catenin (armadillo repeat 3 up to the C-terminal end of the protein) coding for the amino acids Leu218–Leu7 μl or its mutants was cloned into the fusion vector for the activation domain of Gal-4 (pGAD424, Clontech). The cDNA for the binding domains of the interaction partners was cloned into the Lex-A fusion vector BTM 116. To this end, the cDNA of LEF-1 for the amino acids 1–99, conductin for the amino acids Ala342–ARG465; of human APC for the amino acids His1012–Glu1215 (APC 15 amino acid repeats) and for the amino acids Ser1259Asp 1400 (APC 20 amino acid repeats) and E-cadherin for the amino acids Gin773–Asp884 (cytoplasmatic domain) were amplified with the respective primers PCR. The interaction of the Lex-A hybrids with β-catenin and its mutants was quantified by means of the β-galactosidase reporter activity in the yeast 2-hybrid system (report: “Matchmaker”. Clontech) (Tab. 2 and FIG. 6).

[1] = target: T2, APC (20 amino acid repeats) (Homo sapiens, UniProt P25054); assay: yeast 2-hybrid: interaction of β-catenin mutants with APC 20 amino acid repeats
T2 construct: for the amino acids Ser1259Asp 1400 (APC 20 amino acid repeats); expressed in transfected cells; host or cells: yeast (two-hybrid, Matchmaker, Clontech)
T2 sequence (P25054 1253-1394 limits assumed): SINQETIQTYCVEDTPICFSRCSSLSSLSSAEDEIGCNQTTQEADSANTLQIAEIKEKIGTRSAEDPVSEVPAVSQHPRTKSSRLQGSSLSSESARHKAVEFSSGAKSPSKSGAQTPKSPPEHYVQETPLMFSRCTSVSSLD
Method: as §1

[2] = target: T3, APC (15 amino acid repeats) (Homo sapiens, UniProt P25054); assay: yeast 2-hybrid: interaction of β-catenin mutants with APC 15 amino acid repeats
T3 construct: of human APC for the amino acids His1012–Glu1215 (APC 15 amino acid repeats); expressed in transfected cells; host or cells: yeast (two-hybrid, Matchmaker, Clontech)
T3 sequence (P25054 1006-1209 limits assumed): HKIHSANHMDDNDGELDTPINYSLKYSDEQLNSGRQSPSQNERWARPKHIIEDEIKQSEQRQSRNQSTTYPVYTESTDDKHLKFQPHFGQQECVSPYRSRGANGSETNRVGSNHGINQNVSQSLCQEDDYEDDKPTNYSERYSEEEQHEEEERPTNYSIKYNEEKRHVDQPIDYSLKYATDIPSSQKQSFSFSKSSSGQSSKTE
Method: as §1

conductin = target: T4, conductin (Mus musculus, UniProt O88566); assay: yeast 2-hybrid: interaction of β-catenin mutants with conductin
T4 construct: conductin for the amino acids Ala342–ARG465; expressed in transfected cells; host or cells: yeast (two-hybrid, Matchmaker, Clontech)
T4 sequence (O88566 343-465 limits assumed): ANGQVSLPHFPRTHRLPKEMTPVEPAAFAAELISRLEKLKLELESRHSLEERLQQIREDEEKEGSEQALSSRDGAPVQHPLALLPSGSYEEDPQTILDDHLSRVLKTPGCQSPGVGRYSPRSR
Method: as §1

B1: Arg 342: human β-catenin mutant, Arg 342 substituted by alanine (arm 5) (protein)
chain: LHNLSHHREGLLAIFKSGGIPALVKMLGSPVDSVLFYAITTLHNLLLHQEGAKMAVRLAGGLQKMVALLNKTNVKFLAITTDCLQILAYGNQESKLIILASGGPQALVNIMRTYTYEKLLWTTSAVLKVLSVCSSNKPAIVEAGGMQALGLHLTDPSQRLVQNCLWTLRNLSDAATKQEGMEGLLGTLVQLLGSDDINVVTCAAGILSNLTCNNYKNKMMVCQVGGIEALVRTVLRAGDREDITEPAICALRHLTSRHQEAEMAQNAVRLHYGLPVVVKLLHPPSHWPLIKATVGLIRNLALCPANHAPLREQGAIPRLVQLLVRAHQDTQRRTSMGGTQQQFVEGVRMEEIVEGCTGALHILARDVHNRIVIRGLNTIPLFVQLLYSPIENIQRVAAGVLCELAQDKEAAEAIEAEGATAPLTELLHSRNEGVATYAAAVLFRMSEDKPQDYKKRLSVELTSSLFRTEPMAWNETADLGLDIGAQGEPLGYRQDDPSYRSFHSGGYGQDALGMDPMMEHEMGGHHPGADYPVDGLPDLGHAQDLMDGLPPGDSNQLAWFDTDL
modifications: left off: large carriers; small tags and cut ends
- Interaction With LEF-1, share of wild type β-catenin interaction (LEF-1): — (Interactions marked by — correspond to 60–100% of the wild type interaction)
- Interaction With APC-20, share of wild type β-catenin interaction [1]: 29%
- Interaction With APC-15, share of wild type β-catenin interaction [2]: — (Interactions marked by — correspond to 60–100% of the wild type interaction)
- Interaction With Conductin, share of wild type β-catenin interaction (conductin): 20%
